From patent US20020058247A1 (TRIPEP, published 2002)

Key:
[1] = target: T1, Full length recombinant HBcAg (rHBcAg) encompassing residues 1-183 (hepatitis B virus, UniProt P03146 1-183); experiment: competition EIA, HBcAg coated 5 ug/ml, peptide 12.5 ug/ml together with mAb 4-2 (competitor); OD of bound mAb
T1 construct: range 1-183; also called hepatitis B virus core antigen

[2] = target: T1, Full length recombinant HBcAg (rHBcAg) …; experiment: competition EIA, HBcAg coated 1 ug/ml, peptide 200 ug/ml before mAb 4-2 (competitor); OD of bound mAb
[3] = target: T1, Full length recombinant HBcAg (rHBcAg) …; experiment: competition EIA, HBcAg coated 5 ug/ml, peptide 100 ug/ml together with mAb 4-2 (competitor); OD of bound mAb
[4] = target: T1, Full length recombinant HBcAg (rHBcAg) …; experiment: competition EIA, HBcAg coated 5 ug/ml, peptide 25 ug/ml together with mAb 4-2 (competitor); OD of bound mAb
[5] = target: T1, Full length recombinant HBcAg (rHBcAg) …; experiment: competition EIA, HBcAg coated 5 ug/ml, peptide 200 ug/ml together with mAb 4-2 (competitor); OD of bound mAb
[6] = target: T1, Full length recombinant HBcAg (rHBcAg) …; experiment: competition EIA, HBcAg coated 5 ug/ml, peptide 50 ug/ml together with mAb 4-2 (competitor); OD of bound mAb
[7] = target: T1, Full length recombinant HBcAg (rHBcAg) …; experiment: competition EIA, HBcAg coated 1 ug/ml, peptide 6.25 ug/ml before mAb 4-2 (competitor); OD of bound mAb
[8] = target: T1, Full length recombinant HBcAg (rHBcAg) …; experiment: competition EIA, HBcAg coated 1 ug/ml, peptide 12.5 ug/ml before mAb 4-2 (competitor); OD of bound mAb
[9] = target: T1, Full length recombinant HBcAg (rHBcAg) …; experiment: competition EIA, HBcAg coated 1 ug/ml, peptide 100 ug/ml before mAb 4-2 (competitor); OD of bound mAb
[10] = target: T1, Full length recombinant HBcAg (rHBcAg) …; experiment: EIA, support-bound peptide, HBcAg 2 ug/well
[11] = target: T1, Full length recombinant HBcAg (rHBcAg) …; experiment: competition EIA, HBcAg coated 5 ug/ml, peptide 6.25 ug/ml together with mAb 4-2 (competitor); OD of bound mAb
[12] = target: T2, non-structural 3 protein (NS3) of the hepatitis C virus (HCV) (hepatitis C virus); experiment: EIA, support-bound peptide, HCV NS3 control
T2 construct: Control antigen; also called HCV NS3

[13] = target: T1, Full length recombinant HBcAg (rHBcAg) …; experiment: competition EIA, HBcAg coated 1 ug/ml, peptide 25 ug/ml before mAb 4-2 (competitor); OD of bound mAb
[14] = target: T1, Full length recombinant HBcAg (rHBcAg) …; experiment: EIA, support-bound peptide, HBcAg 0.2 ug/well
[15] = target: T1, Full length recombinant HBcAg (rHBcAg) …; experiment: competition EIA, HBcAg coated 1 ug/ml, peptide 50 ug/ml before mAb 4-2 (competitor); OD of bound mAb
[16] = target: T3, VKLSCKASGYIFTSHRGGPEE (SEQ. ID. No. 74); experiment: competition EIA, 5 ug HBcAg peptide + 5 ug SEQ 74 peptide on coated HBcAg (competitor); OD of bound SEQ 74 peptide
T3 peptide: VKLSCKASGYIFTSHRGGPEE

[17] = target: T4, truncated recombinant form of HBeAg containing nine residues of pre-core and the 150 first residues of HBcAg (hepatitis B virus, UniProt P03146 1-150); experiment: EIA, HBeAg on solid phase, fusion peptide 20 ug/well, gG2 mAb detection
T4 construct: domain: nine residues of pre-core;range 1-150; also called hepatitis B virus e antigen

[18] = target: T1, Full length recombinant HBcAg (rHBcAg) …; experiment: EIA, peptide coated 6.25 ug/ml, HBcAg 10 ug/ml
[19] = target: T1, Full length recombinant HBcAg (rHBcAg) …; experiment: EIA, support-bound peptide, HBcAg 2.5 ug/ml
[20] = target: T4, truncated recombinant form of HBeAg …; experiment: EIA, support-bound peptide, HBeAg 0.67 ug/ml
[21] = target: T1, Full length recombinant HBcAg (rHBcAg) …; experiment: EIA, support-bound peptide, HBcAg 1.25 ug/ml
[22] = target: T1, Full length recombinant HBcAg (rHBcAg) …; experiment: EIA, support-bound peptide, HBcAg 10 ug/ml
[23] = target: T1, Full length recombinant HBcAg (rHBcAg) …; experiment: EIA, peptide coated 100 ug/ml, HBcAg 10 ug/ml
[24] = target: T4, truncated recombinant form of HBeAg …; experiment: EIA, support-bound peptide, HBeAg 1.25 ug/ml
[25] = target: T4, truncated recombinant form of HBeAg …; experiment: EIA, support-bound peptide, HBeAg 10 ug/ml
[26] = target: T1, Full length recombinant HBcAg (rHBcAg) …; experiment: EIA, support-bound peptide, HBcAg 0.67 ug/ml
[27] = target: T1, Full length recombinant HBcAg (rHBcAg) …; experiment: EIA, peptide coated 50 ug/ml, HBcAg 10 ug/ml
[28] = target: T4, truncated recombinant form of HBeAg …; experiment: EIA, support-bound peptide, HBeAg 2.5 ug/ml
[29] = target: T1, Full length recombinant HBcAg (rHBcAg) …; experiment: EIA, peptide coated 12.5 ug/ml, HBcAg 10 ug/ml
[30] = target: T4, truncated recombinant form of HBeAg …; experiment: EIA, support-bound peptide, HBeAg 20 ug/ml
[31] = target: T1, Full length recombinant HBcAg (rHBcAg) …; experiment: EIA, peptide coated 3.125 ug/ml, HBcAg 10 ug/ml
[32] = target: T1, Full length recombinant HBcAg (rHBcAg) …; experiment: EIA, support-bound peptide, HBcAg 20 ug/ml
[33] = target: T1, Full length recombinant HBcAg (rHBcAg) …; experiment: EIA, peptide coated 25 ug/ml, HBcAg 10 ug/ml
[34] = target: T1, Full length recombinant HBcAg (rHBcAg) …; experiment: EIA, support-bound peptide, HBcAg 5 ug/ml
[35] = target: T4, truncated recombinant form of HBeAg …; experiment: EIA, support-bound peptide, HBeAg 5 ug/ml

T1 sequence (P03146 whole entry, the tested form may be a part): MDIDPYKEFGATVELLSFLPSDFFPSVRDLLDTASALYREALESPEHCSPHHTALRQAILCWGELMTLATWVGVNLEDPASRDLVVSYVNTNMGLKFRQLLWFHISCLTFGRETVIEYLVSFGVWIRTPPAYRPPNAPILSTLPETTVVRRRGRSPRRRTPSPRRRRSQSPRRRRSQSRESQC
T4 sequence (P03146 1-150): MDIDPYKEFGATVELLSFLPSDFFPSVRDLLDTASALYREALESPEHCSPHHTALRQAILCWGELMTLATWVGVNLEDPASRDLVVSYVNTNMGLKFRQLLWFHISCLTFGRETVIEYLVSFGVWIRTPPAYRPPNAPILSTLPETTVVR

## QQKPGQPPKLLIKYASNLES [QQKPGQPPKLLIKYASNLES (SEQ. ID. No. 19)]
[1]
  OD at 490 nm: 1.24 OD
[2]
  OD at 490 nm: 0.368 OD
[3]
  OD at 490 nm: 1.11 OD
[4]
  OD at 490 nm: 1.24 OD
[5]
  OD at 490 nm: 0.925 OD
[6]
  OD at 490 nm: 1.23 OD
[7]
  OD at 490 nm: 0.336 OD
[8]
  OD at 490 nm: 0.391 OD
[9]
  OD at 490 nm: 0.394 OD
[10]
  OD at 405 nm: 0.299 OD
[11]
  OD at 490 nm: 1.06 OD
[12]
  OD at 405 nm: 0.016 OD
[13]
  OD at 490 nm: 0.406 OD
[14]
  OD at 405 nm: 0.064 OD
[15]
  OD at 490 nm: 0.383 OD

## SDFFPSVRDLLDTASALYRE [HBcAg peptide SDFFPSVRDLLDTASALYRE (residues 21-40, Sequence ID 97)]
[16]
  OD at 490 nm: 1.58 OD

## ATVELLSFLPSDFFPSVRDL [HBcAg peptide ATVELLSFLPSDFFPSVRDL (residues 11-30, Sequence ID 96)]
[16]
  OD at 490 nm: 1.39 OD

## VKLSCKASGYIFTSGGPEEFE (also called fusion peptide) [VKLSCKASGYIFTSGGPEEFE (SEQ. ID. No. 76)]
[17]
  gG2 mAb binding (OD): 0.024 OD

## YNMNWVKQSHGKSLEWIGNI (also called Peptide # 27) [YNMNWVKQSHGKSLEWIGNI (SEQ. ID. No. 30)]
[18]
  OD: 0.175 OD
[19]
  OD: 0.042 OD
[20]
  OD: 0.018 OD
[21]
  OD: 0.026 OD
[22]
  OD: 0.115 OD
[23]
  OD: 0.151 OD
[24]
  OD: 0.021 OD
[25]
  OD: 0.037 OD
[26]
  OD: 0.02 OD
[27]
  OD: 0.17 OD
[28]
  OD: 0.032 OD
[29]
  OD: 0.181 OD
[30]
  OD: 0.04 OD
[10]
  OD at 405 nm: 0.157 OD
[31]
  OD: 0.168 OD
[32]
  OD: 0.305 OD
[12]
  OD at 405 nm: 0.021 OD
[33]
  OD: 0.162 OD
[34]
  OD: 0.059 OD
[14]
  OD at 405 nm: 0.114 OD
[35]
  OD: 0.029 OD

## VKLSCKASGYIFTSEHRGGPE (also called fusion peptide) [VKLSCKASGYIFTSEHRGGPE (SEQ. ID. No. 73)]
[17]
  gG2 mAb binding (OD): 0.029 OD

## KLSCKASGYIFTSHRGGPEEF (also called fusion peptide) [KLSCKASGYIFTSHRGGPEEF (SEQ. ID. No. 71)]
[17]
  gG2 mAb binding (OD): 0.638 OD

## AYRPPNAPILSTLPETTVVR [HBcAg peptide AYRPPNAPILSTLPETTVVR (residues 131-150, Sequence ID 108)]
[16]
  OD at 490 nm: 1.56 OD

## KLSCKASGYIFTSEHRGGPEE (also called fusion peptide) [KLSCKASGYIFTSEHRGGPEE (SEQ. ID. No. 70)]
[17]
  gG2 mAb binding (OD): 0.022 OD

## WVGVNLEDPASRDLVVSYVN [HBcAg peptide WVGVNLEDPASRDLVVSYVN (residues 71-90, Sequence ID 102)]
[16]
  OD at 490 nm: 1.41 OD

## LWFHISCLTFGRETVIEYLV [HBcAg peptide LWFHISCLTFGRETVIEYLV (residues 101-120, Sequence ID 105)]
[16]
  OD at 490 nm: 1.13 OD

## LDTASALYREALESPEHCSP [HBcAg peptide LDTASALYREALESPEHCSP (residues 31-50, Sequence ID 98)]
[16]
  OD at 490 nm: 1.59 OD

## CWGELMTLATWVGVNLEDPA [HBcAg peptide CWGELMTLATWVGVNLEDPA (residues 61-80, Sequence ID 101)]
[16]
  OD at 490 nm: 1.4 OD

## KLSCKASGYIFTSRGGPEEFE (also called fusion peptide) [KLSCKASGYIFTSRGGPEEFE (SEQ. ID. No. 72)]
[17]
  gG2 mAb binding (OD): 0.04 OD

## SRDLVVSYVNTNMGLKFRQL [HBcAg peptide SRDLVVSYVNTNMGLKFRQL (SEQ. ID. NO. 103, residues 81-100)]
[16]
  OD at 490 nm: 0.386 OD

## ALESPEHCSPHHTALRQAIL [HBcAg peptide ALESPEHCSPHHTALRQAIL (residues 41-60, Sequence ID 99)]
[16]
  OD at 490 nm: 1.37 OD

## TNMGLKFRQLLWFHISCLTF [HBcAg peptide TNMGLKFRQLLWFHISCLTF (SEQ. ID. No. 104, residues 91-110)]
[16]
  OD at 490 nm: 0.058 OD
